From doi:10.1101/2024.12.27.630466

Biological target: ErlA
Experiment: SEC

ErlB (natural protein)
stoichiometry N (ErlB per ErlA (4:4)): 1
